Substitutions are numbered along the chain they refer to. In names and notes the source's numbering stands.
T1: human GFRα3 expressed with a C-terminal mFc tag (human)
T1 construct: also called hGFRα3-mFc
T1 chain: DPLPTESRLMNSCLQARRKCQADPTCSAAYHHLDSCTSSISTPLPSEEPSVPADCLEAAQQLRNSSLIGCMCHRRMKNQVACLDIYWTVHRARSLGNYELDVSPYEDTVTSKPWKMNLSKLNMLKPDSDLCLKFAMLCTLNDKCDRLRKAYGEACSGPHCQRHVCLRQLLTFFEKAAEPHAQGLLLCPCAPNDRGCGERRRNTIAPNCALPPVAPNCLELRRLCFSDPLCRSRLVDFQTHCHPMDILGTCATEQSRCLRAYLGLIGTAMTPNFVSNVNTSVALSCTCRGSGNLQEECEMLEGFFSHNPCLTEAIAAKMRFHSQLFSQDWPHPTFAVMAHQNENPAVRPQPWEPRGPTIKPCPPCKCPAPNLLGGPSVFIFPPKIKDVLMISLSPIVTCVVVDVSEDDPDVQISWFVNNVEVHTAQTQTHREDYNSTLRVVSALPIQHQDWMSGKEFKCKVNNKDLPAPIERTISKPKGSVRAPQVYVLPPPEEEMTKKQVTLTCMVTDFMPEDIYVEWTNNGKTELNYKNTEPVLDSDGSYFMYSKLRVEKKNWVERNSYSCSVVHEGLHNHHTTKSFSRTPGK

T2: monkey GFRα3 expressed with a C-terminal myc-myc-hexahistidine tag (monkey (Mf), UniProt O60609 32-374 (human entry), limits assumed)
T2 construct: also called MfGFRα3-mmh; MfGFRα3-mmH
T2 chain: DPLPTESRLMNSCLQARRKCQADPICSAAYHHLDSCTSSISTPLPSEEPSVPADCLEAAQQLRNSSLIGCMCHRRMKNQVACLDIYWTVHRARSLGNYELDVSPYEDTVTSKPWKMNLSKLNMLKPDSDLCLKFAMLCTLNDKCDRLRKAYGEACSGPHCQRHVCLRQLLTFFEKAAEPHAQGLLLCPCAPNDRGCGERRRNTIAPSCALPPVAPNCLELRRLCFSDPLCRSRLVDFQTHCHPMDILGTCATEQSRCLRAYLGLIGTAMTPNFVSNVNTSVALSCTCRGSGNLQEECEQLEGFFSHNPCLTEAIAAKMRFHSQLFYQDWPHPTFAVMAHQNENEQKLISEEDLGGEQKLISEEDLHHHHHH

B1: H4H2291S (antibody, human IgG4, V domains shown)
VH: EVQLVESGGGLVQPGESLRLSCAASGFTFSNYAMSWVRQAPGKGLEWVSVISGSGGSTYYADSVKGRFTMSRDNSKNTLYLQMNSLRAEDTAVYYCAKPPSRAARYFNYGMDVWGQGTTVTVSS
VL: AIRMTQSPSSVSASVGDRVTITCRASQGISSWLAWYQQKPGKAPKLLIYAASSLQSGVPSRFSGSGSGTDFTLTISSLQPEDFATYYCQQANSFPFTFGGGTKVEIK
notes: human IgG4 Fc (H4H)
B2: H4H2296S (antibody, human IgG4, V domains shown)
VH: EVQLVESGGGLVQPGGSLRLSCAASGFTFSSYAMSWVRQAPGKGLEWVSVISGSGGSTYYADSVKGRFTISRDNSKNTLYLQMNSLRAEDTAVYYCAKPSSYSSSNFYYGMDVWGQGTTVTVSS
VL: B1 VL with A1D, R3V, Q55R, S76T, Q90H, A91T, G100P
notes: human IgG4 Fc (H4H)
B3: H4H2357S (antibody, human IgG4, V domains shown)
VH: EVQLVESGGGLVQPGGSLRLSCAASTFTFSSYAMTWVRQAPGKGLEWVSSISGSGDSTYYADSVKGRFTISRDNSKNTLFLQMNSLRAEDTAVYYCAKKDGPGRYYVRYGMDVWGQGTTVTVSS
VL: B1 VL with A1D, R3Q, A50T, A51T, F96L, E105D
notes: human IgG4 Fc (H4H)
B4: H4H2295S (antibody, human IgG4, V domains shown)
VH: EVQLVESGGGLVQAGGSLRLSCVASGFTFSSYAMSWVRQAPGKGLEWVSAISGSGGSTYSADSVKGRFTISRDNSKNTLYLQMNSLRAEDTAVYYCTKPSSYSSSNFYYGMDVWGQGTTVTVSS
VL: B1 VL with A1D, R3Q, A50T, G68R, A91T, F94L, F96L, G100P
notes: human IgG4 Fc (H4H)
B5: H4H2294S (antibody, human IgG4, V domains shown)
VH: B4 VH with A14P, V23A, A50V, S60Y, S63A, N77H, T118S
VL: B1 VL with A1D, R3Q, M4L, A91T, T97P, G100P, E105D
notes: human IgG4 Fc (H4H)
B6: H4H2342P (antibody, human IgG4, V domains shown)
VH: EVQLLESGGGLVQPGGSLRLSCAASGFTFSTYAMSWVRQAPGKGLEWVSAIRGNGVNTYYGDSMKGRFTISRDNSKDTLYLQMNSLRAEDTAVYYCAKNKWELLVFEYWGQGTLVTVSS
VL: DIQMTQSPSSLSASVGDRVTITCRASQDISNYLAWYQQKPGKVPKLLIYAASTLQSGVPFRFSGSGSGTDFTLTISSLQPEDVATYYCQKYNSAPPFGPGTKVDIK
notes: human IgG4 Fc (H4H)
B7: H4H2355S (antibody, human IgG4, V domains shown)
VH: EVQLVESGGGLVQPGGSLRLSCAASGFTFSSYAMSWVRQVPGKGLEWVSAISGSGDNTYNAESVKGRFTISRDNSKNMLYLQMNSLRAEDTAVYYCAKTKFSSSLLFDYWGQGTLVTVSS
VL: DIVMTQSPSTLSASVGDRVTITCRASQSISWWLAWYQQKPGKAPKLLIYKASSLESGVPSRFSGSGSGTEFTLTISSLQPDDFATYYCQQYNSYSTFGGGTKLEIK
notes: human IgG4 Fc (H4H)
B8: H4H2243N2 (antibody, human IgG4, V domains shown)
VH: QVQLVQSGAEVKKPGASVKVSCKASGYTFTSYGIIWVRQAPGQGLEWMGWISGYNGNTNYAQNLQGRVTMTTDTSTTTAYMELRSLRSDDTAVYYCARWGIATRPYYYYGMDVWGQGTTVTVSS
VL: DIQMTQSPSSLSASVGDRVTITCRASQDITNYLAWFQQKPGKAPKSLIYAASSLQSGVPSKFSGSGSGTDFTLTISSLQPEDFATYYCQQYNSYPPTFGPGTKVDIK
notes: human IgG4 Fc (H4H)

biological target: T3, human GFRα3 expressed with a C-terminal myc-myc-hexahistidine tag (human, UniProt O60609 32-374, biotinylated (sites not given) in ELISA format 2 and in the Octet cross-competition; not in SPR); assay: SPR, Ab captured, 25C
T3 construct: also called hGFRα3-mmh; hGFRα3-mmH
Experimental: (§1) Antibodies were tested for binding to human GFRα3 expressed with either a C-terminal myc-myc-hexahistidine tag (hGFRα3-mmh; SEQ ID: 370, a C-terminal hFc tag (hGFRα3-hFc; SEQ ID:371), or a C-terminal mFc tag (hGFRα3-mFc; SEQ ID:372), as well as monkey GFRα3 expressed with a C-terminal myc-myc-hexahistidine tag (MfGFRα3-mmh; SEQ ID:373). Anti-GFRα3 antibodies were captured on either a goat anti-mouse IgG polyclonal antibody (GE Healthcare, #BR-1008-38) or a mouse anti-human IgG monoclonal antibody (GE Healthcare, #BR-1008-39) surface created through direct amine coupling to a Biacore CM5 sensor chip. Kinetic experiments were carried out using HBS-EP (10 mM HEPES, 150 mM NaCl, 3 mM EDTA, 0.05% Surfactant P20, at pH 7.4) or PBS buffer containing 0.05% v/v surfactant P20 as both the running buffer and the sample buffer. Binding to human GFRα3-mmh or monkey GFRα3-mmh was evaluated by injecting several concentrations ranging from 200 to 7.4 nM (3-fold dilutions) across the captured antibody surface. Binding to human GFRα3-mFc or human GFRα3-hFc was evaluated by injecting several concentrations ranging from 100 to 3.7 nM (3-fold dilutions) across the captured antibody surface. Antibody-antigen association was monitored for up to 4 minutes, while dissociation in buffer was monitored for up to 20 minutes. Kinetic association (kₐ) and dissociation (kd) rate constants were determined by processing and fitting the data to a 1:1 binding model using Scrubber 2.0c curve fitting software. Binding dissociation equilibrium constants (KD) and dissociative half-lives (t_{1/2}) were calculated from the kinetic rate constants as: KD (M)=kd/kₐ and t_{1/2} (min)=[ln 2/(60*kd)].

Kd [pM]	koff [s⁻¹]	kon [M⁻¹ s⁻¹]	t1/2 [h]	Binder
393	0.000164	418000	1.17	B1
332	0.000187	563000	1.03	B2
2420	0.000557	230000	0.35	B3
540	0.000256	475000	0.75	B4
142	7.99e-05	563000	2.42	B5
1100	0.000204	186000	0.95	B6
821	0.000152	186000	1.27	B7
2920	0.00078	267000	0.25	B8

Biological target: T1, human GFRα3 expressed with a C-terminal …
Assay: SPR, Ab captured, 25C
Experimental: as §1

Kd [pM]	koff [s⁻¹]	kon [M⁻¹ s⁻¹]	t1/2 [h]	Binder
4.63	4.78e-06	1.03e+06	40.3	B1
3.37	4.17e-06	1.24e+06	46.2	B2
32.4	2.52e-05	779000	7.63	B3
1.57	1.69e-06	1.08e+06	114	B4
4.63	5.63e-06	1.22e+06	34.2	B5
≤ 1.51	≤ 1e-06	661000	192	B6
≤ 1.64	≤ 1e-06	611000	192	B7

Biological target: T2, monkey GFRα3 expressed with a …
Assay: SPR, Ab captured, 25C
Experimental: as §1

Kd [pM]	koff [s⁻¹]	kon [M⁻¹ s⁻¹]	t1/2 [h]	Binder
1850	0.000279	151000	0.683	B1
3370	0.000651	193000	0.3	B2
2260	0.000315	140000	0.617	B3
5320	0.000973	183000	0.2	B4
627	0.000204	325000	0.95	B5
5870	0.00055	93700	0.35	B6
649	6.78e-05	105000	2.83	B7

biological target: T3, human GFRα3 expressed with a C-terminal …; assay: Octet cross-competition; biotin-hGFRα3-mmH pre-saturated with first antibody H4H2236N3
Experimental: A cross-competition assay was conducted to assess the ability of select antibodies to compete with one another for binding to human GFRα3 using an Octet RED384 biosensor (Fortebio Inc.). The entire experiment was performed at 25° C. with the flow rate of 1000 rpm in Octet HBST buffer (0.01 M HEPES pH7.4, 0.15M NaCl, 3 mM EDTA, 0.05% v/v Surfactant P20, 0.1 mg/mL BSA). To assess whether 2 antibodies were able to compete with one another for binding to their respective epitopes on biotinylated recombinant human GFRα3 expressed with a C-terminal myc-myc-hexahistidine tag (biotin-hGFRα3-mmH; SEQ ID:370), around ˜1.2 nm of biotin-hGFRα3-mmH was first captured onto streptavidin-coated Octet sensor tips (Fortebio Inc, #18-5019) by submerging the tips for 1 minute into a 10 μg/mL solution of biotin-hGFRα3-mmH. The antigen coated sensor tips were then placed into wells containing 25 μg/mL solution of a first anti-GFRα3 monoclonal antibody for 4 minutes to saturate the biotin-hGFRα3-mmH surface. The sensor tips were then subsequently dipped into wells containing 25 μ/mL solution of a second anti-GFRα3 monoclonal antibody. The sensor tips were washed in Octet HBST buffer in between every step of the experiment. The real-time binding response was monitored during the course of the experiment and the binding response at the end of every step was recorded as shown in FIG. 9. The response of mAb-2 binding to biotin-hGFRα3-mmH pre-complexed with the first antibody was compared and competitive/non-competitive behavior of different anti-GFRα3 monoclonal antibodies was determined.

binding response of second antibody (nm)	Binder
0.06	B1
0.02	B2
0.04	B3
0.03	B4
0	B5
-0.01	B6
0	B7
0.02	B8
